Source: patent publication US20090208994A1, “GENETIC INCORPORATION OF 3-AMINOTYROSINE INTO REDUCTASES” (THE SCRIPPS RESEARCH INSTITUTE, priority 2007, published 2009)

Tests used:
DH10B E. coli cells = experiment: Toxicity of NH2Y: growth in liquid GMML medium and on agar plates; format: cell-based
Description: Toxicity and uptake of NH2Y. Evolution of an NH2Y-specific aminoacyl-tRNA synthetase (RS) requires that NH2Y is taken up by E. coli, that it is not toxic, and that it is not incorporated into proteins by any endogenous RSs. All three requirements were met by NH2Y. […] The presence of DTT however, caused cells to grow at a rate 25-35% more slowly than those in the presence of only NH2Y or absence of NH2Y/DTT.

[1] = target: T1, E. coli ribonucleotide reductase (α2β2 complex) (Escherichia coli, UniProt P00452); conditions: previous studies; inactivation of wt α2β2 by N3ADP/dGTP; 20 s time scale; cited from earlier work
T1 construct: made in house; host or cells: E. coli DH10B for the NH2Y-α2s

[2] = pH 7; cited from earlier work
wt β2, P69924 = target: T2, wt β2, P69924
T2 chain: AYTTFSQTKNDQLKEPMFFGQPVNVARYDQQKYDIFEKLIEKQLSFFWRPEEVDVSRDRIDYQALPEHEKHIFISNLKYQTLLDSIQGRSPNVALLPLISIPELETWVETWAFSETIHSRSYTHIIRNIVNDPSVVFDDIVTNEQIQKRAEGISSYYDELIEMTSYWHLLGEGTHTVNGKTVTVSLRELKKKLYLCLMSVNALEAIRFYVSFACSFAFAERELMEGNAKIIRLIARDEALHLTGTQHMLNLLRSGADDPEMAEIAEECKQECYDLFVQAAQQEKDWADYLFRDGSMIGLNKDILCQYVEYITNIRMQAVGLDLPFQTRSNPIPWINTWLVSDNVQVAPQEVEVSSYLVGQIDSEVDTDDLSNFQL

wt β2 (E. coli) = wt β2 (E. coli) (UniProt P69924); experiment: cell-based or functional assay

Q: With `Nc1cc(C[C@H](N)C(=O)O)ccc1O` [NH2Y, 3-aminotyrosine] as the molecule, how does the “effect on growth rates” value (DH10B E. coli cells; NH2Y (1 mM) or NH2Y/DTT in GMML medium and agar plates) read?
A: The value was “not significantly affected”.

Q: Which “initial Y122• lost (forming an equivalent amount of N•)” value [1] does the source give for `[N-]=[N+]=N[C@@H]1[C@H](O)[C@@H](COP(=O)(O)OP(=O)(O)O)O[C@H]1n1cnc2c(N)ncnc21` [N3ADP, 2′-Azido-2′-deoxyadenosine-5′-diphosphate] here?
A: The value was 50-60%.

Q: With `N[C@@H](Cc1ccc(O)c(O)c1)C(=O)O` [DOPA, 3,4-dihydroxyphenylalanine] as the molecule, how does the “reduction potential lower than that of Y” value [2] read?
A: The value was 260 mV.

Q: With `O[C@H](CS)[C@H](O)CS` (racemic) [DTT, DL-dithiothreitol] as the molecule, how does the “cells grow more slowly (rate)” value (DH10B E. coli cells; presence of DTT (0.1 mM) vs. only NH2Y or absence of NH2Y/DTT) read?
A: The value was 25-35%.

B1: Y730NH2Y-α2 (protein)
chain: MNQNLLVTKRDGSTERINLDKIHRVLDWAAEGLHNVSISQVELRSHIQFYDGIKTSDIHETIIKAAADLISRDAPDYQYLAARLAIFHLRKKAYGQFEPPALYDHVVKMVEMGKYDNHLLEDYTEEEFKQMDTFIDHDRDMTFSYAAVKQLEGKYLVQNRVTGEIYESAQFLYILVAACLFSNYPRETRLQYVKRFYDAVSTFKISLPTPIMSGVRTPTRQFSSCVLIECGDSLDSINATSSAIVKYVSQRAGIGINAGRIRALGSPIRGGEAFHTGCIPFYKHFQTAVKSCSQGGVRGGAATLFYPMWHLEVESLLVLKNNRGVEGNRVRHMDYGVQINKLMYTRLLKGEDITLFSPSDVPGLYDAFFADQEEFERLYTKYEKDDSIRKQRVKAVELFSLMMQERASTGRIYIQNVDHCNTHSPFDPAIAPVRQSNLCLEIALPTKPLNDVNDENGEIALCTLSAFNLGAINNLDELEELAILAVRALDALLDYQDYPIPAAKRGAMGRRTLGIGVINFAYYLAKHGKRYSDGSANNLTHKTFEAIQYYLLKASNELAKEQGACPWFNETTYAKGILPIDTYKKDLDTIANEPLHYDWEALRESIKTHGLRNSTLSALMPSETSSQISNATNGIEPPRGYVSIKASKDGILRQVVPDYEHLHDAYELLWEMPGNDGYLQLVGIMQKFIDQSISANTNYDPSRFPSGKVPMQQLLKDLLTAYKFGVKTLYYQNTRDGAEDAQDDLVPSIQDDGCESGACKI
Q: For B1, which “kobs / Ampl, 1st phase, without CDP/ATP” value (wt β2, P69924) is on record?
A: The value was “No changes observed”.

Q: And the “kobs / Ampl, 2nd phase, without CDP/ATP” value (wt β2, P69924)?
A: Its value is “No changes observed”.

Q: And the “rate constant of formation of NH2Y• at 325 nm (fast phase)” value (wt β2, P69924)?
A: The value was 13.6 ± 0.1 s⁻¹.

Q: What about the “rate constant of formation of NH2Y• at 325 nm (slow phase)” value (wt β2, P69924) of the same molecule?
A: The value was 2.5 ± 0.1 s⁻¹.

Q: And the “rate constant of loss of Y122• at 410 nm (fast phase)” value (wt β2, P69924)?
A: The value was 12.0 ± 0.1 s⁻¹.

Q: And the “rate constant of loss of Y122• at 410 nm (slow phase)” value (wt β2, P69924)?
A: Its value is 2.4 ± 0.1 s⁻¹.

Q: And the “kobs, 1st phase (stopped-flow UV-vis, Y122• loss / NH2Y730• formation, with CDP/ATP)” value (wt β2, P69924; in 1/s)?
A: Its value is 12.8 ± 0.8, 20 ± 1.

Q: And the “kobs, 2nd phase (stopped-flow UV-vis, Y122• loss / NH2Y730• formation, with CDP/ATP)” value (wt β2, P69924; in 1/s)?
A: The value was 2.5 ± 0.1, 19 ± 1.

B2: Y731NH2Y-α2 (enzyme, E. coli, UniProt P00452 1-761, looked up)
chain: B1 chain
modifications: 3-aminotyrosine (NH2Y) in place of Tyr at 731 (E. coli RNR numbering)
Q: Which Ampl, 1st phase (% of total initial Y122• trapped, with CDP/ATP) (wt β2 (E. coli)) does the source give for B2 here?
A: Its Ampl, 1st phase (% of total initial Y122• trapped, with CDP/ATP) is 24%.

Q: What about the Ampl, 2nd phase (% of total initial Y122• trapped, with CDP/ATP) (wt β2 (E. coli)) of the same molecule?
A: Its Ampl, 2nd phase (% of total initial Y122• trapped, with CDP/ATP) is 11%.

Q: And the EPR spin quantitation at 10 s: share of remaining spin associated with NH2Y731•, with CDP/ATP (wt β2 (E. coli))?
A: The EPR spin quantitation at 10 s: share of remaining spin associated with NH2Y731•, with CDP/ATP was 45%.

Q: And the total initial Y122• consumed at 2 s (wt β2 (E. coli))?
A: The total initial Y122• consumed at 2 s was 35%.

B3: Y730NH2Y-α2 (enzyme, E. coli, UniProt P00452 1-761, looked up)
chain: B1 chain
modifications: 3-aminotyrosine (NH2Y) in place of Tyr at 730 (E. coli RNR numbering)
Q: What does the source list for B3?
A: Ampl, 1st phase (% of total initial Y122• trapped, with CDP/ATP) (wt β2 (E. coli)): 20%; Ampl, 2nd phase (% of total initial Y122• trapped, with CDP/ATP) (wt β2 (E. coli)): 19%; EPR spin quantitation at 10 s: share of remaining spin in the new signal (NH2Y730•), with CDP/ATP (wt β2 (E. coli)): 53%; total initial Y122• consumed at 2 s (wt β2 (E. coli)): 39%
